This experiment concerns the target HLA-DR as expressed on the tumor cell line. The experiment in a line: cell-based or functional assay.

Changes are numbered by the printed parent chain.

B1: MS-GPC-8-27-41 (IgG4 form) (antibody, V domains shown)
VH: QVELKESGPALVKPTQTLTLTCTFSGFSLSTSGVGVGWIRQPPGKALEWLALIDWDDDKYYSTSLKTRLTISKDTSKNQVVLTMTNMDPVDTATYYCARSPRYRGAFDYWGQGTLVTVSS
VL: DIVLTQPPSVSGAPGQRVTISCSGSESNIGNNYVQWYQQLPGTAPKLLIYDNNQRPSGVPDRFSGSKSGTSASLAITGLQSEDEADYYCQSYDMNVHVFGGGTKLTVLG
The molecule B1 came in with a % Killing by mAb; ARH-77 (DR 12); 50 nM, 4 h of 85%; a % Killing by mAb; BJAB (DR 12,13); 50 nM, 4 h of 71%; a % Killing by mAb; BONNA-12; 50 nM, 4 h of 92%; a % Killing by mAb; DOHH-2 (DR 1,2); 50 nM, 4 h of 59%. Further, the % Killing by mAb; EOL-1; 50 nM, 4 h amounted to 69%; the % Killing by mAb; GRANTA-519 (DR 2,11); 50 nM, 4 h came to 78%; the % Killing by mAb; HC-1; 50 nM, 4 h came out at 93%; the % Killing by mAb; HD-MY-Z; 50 nM, 4 h stood at 69%. This molecule also came in with a % Killing by mAb; HDLM-2; 50 nM, 4 h of 88%; a % Killing by mAb; KARPAS-299 (DR 1,2); 50 nM, 4 h of 82%; a % Killing by mAb; KARPAS-422 (DR 2,4); 50 nM, 4 h of 66%; a % Killing by mAb; KM-H2; 50 nM, 4 h of 86%. Further, the % Killing by mAb; L1236; 50 nM, 4 h turned out to be 63%; the % Killing by mAb; L-363; 50 nM, 4 h is 26%; the % Killing by mAb; L-428 (DR 12); 50 nM, 4 h is 91%; the % Killing by mAb; LP-1; 50 nM, 4 h stood at 73%. In addition, the % Killing by mAb; MHH-CALL-4 (DR 1,2); 50 nM, 4 h was determined as 63%; the % Killing by mAb; MHH-PREB-1; 50 nM, 4 h is 4%; the % Killing by mAb; MN-60 (DR 10,13); 50 nM, 4 h worked out at 69%; the % Killing by mAb; NALM-1 (DR 1,4); 50 nM, 4 h was 82%. The same molecule returned a % Killing by mAb; RAJI (DR 10,17); 50 nM, 4 h of 84%; a % Killing by mAb; RPMI-8226; 50 nM, 4 h of 29%; a % Killing by mAb; SR-786 (DR 1,2); 50 nM, 4 h of 53%; a killing of melanoma cell line WM 115 of 21%.

B2: MS-GPC-8-Fab (Fab, V domains shown)
VH: B1 VH with E3Q
VL: B1 VL with E26S, N31S, Q35S, N95P, V96Q, H97A
Take B2: the maximum capacity to kill MHH-Call 4 cells stood at 65%.

B3: MS-GPC-8-6 (Fab) (Fab, V domains shown)
VH: B1 VH with E3Q
VL: B1 VL with E26S, N31S, Q35S, M94Y, N95D, V96H, H97Y
Consider B3, for which the maximum capacity to kill MHH-Call 4 cells turned out to be 76%.

B4: MS-GPC-8-6-13 (IgG4 form) (antibody, V domains shown)
VH: B1 VH
VL: B1 VL with N31A, Q35T, M94Y, N95D, V96H, H97Y
Regarding B4, the % Killing by mAb; ARH-77 (DR 12); 50 nM, 4 h was found to be 87%; the % Killing by mAb; BJAB (DR 12,13); 50 nM, 4 h came to 64%; the % Killing by mAb; BONNA-12; 50 nM, 4 h was determined as 86%; the % Killing by mAb; DOHH-2 (DR 1,2); 50 nM, 4 h is 53%. This molecule registered a % Killing by mAb; EOL-1; 50 nM, 4 h of 53%; a % Killing by mAb; GRANTA-519 (DR 2,11); 50 nM, 4 h of 73%; a % Killing by mAb; HC-1; 50 nM, 4 h of 93%; a % Killing by mAb; HD-MY-Z; 50 nM, 4 h of 72%. Moreover, the % Killing by mAb; HDLM-2; 50 nM, 4 h is 90%; the % Killing by mAb; KARPAS-299 (DR 1,2); 50 nM, 4 h is 76%; the % Killing by mAb; KARPAS-422 (DR 2,4); 50 nM, 4 h came to 71%; the % Killing by mAb; KM-H2; 50 nM, 4 h came out at 87%. Also, the % Killing by mAb; L1236; 50 nM, 4 h is 66%; the % Killing by mAb; L-363; 50 nM, 4 h stood at 19%; the % Killing by mAb; L-428 (DR 12); 50 nM, 4 h turned out to be 92%; the % Killing by mAb; LP-1; 50 nM, 4 h is 73%. Also, the % Killing by mAb; MHH-CALL-4 (DR 1,2); 50 nM, 4 h is 43%; the % Killing by mAb; MHH-PREB-1; 50 nM, 4 h came to 11%; the % Killing by mAb; MN-60 (DR 10,13); 50 nM, 4 h is 67%; the % Killing by mAb; NALM-1 (DR 1,4); 50 nM, 4 h is 65%. Besides, the % Killing by mAb; RAJI (DR 10,17); 50 nM, 4 h stood at 83%; the % Killing by mAb; RPMI-8226; 50 nM, 4 h is 19%; the % Killing by mAb; SR-786 (DR 1,2); 50 nM, 4 h is 26%.

B5: MS-GPC-8-10-57 (IgG4 form) (antibody, V domains shown)
VH: B1 VH
VL: B1 VL with M94L, N95I, V96R
Regarding B5, the % Killing by mAb; ARH-77 (DR 12); 50 nM, 4 h came to 88%; the % Killing by mAb; BJAB (DR 12,13); 50 nM, 4 h turned out to be 67%; the % Killing by mAb; BONNA-12; 50 nM, 4 h stood at 91%; the % Killing by mAb; DOHH-2 (DR 1,2); 50 nM, 4 h is 60%. This molecule also yielded a % Killing by mAb; EOL-1; 50 nM, 4 h of 49%; a % Killing by mAb; GRANTA-519 (DR 2,11); 50 nM, 4 h of 78%; a % Killing by mAb; HC-1; 50 nM, 4 h of 86%; a % Killing by mAb; HD-MY-Z; 50 nM, 4 h of 57%. In addition, the % Killing by mAb; HDLM-2; 50 nM, 4 h was 84%; the % Killing by mAb; KARPAS-299 (DR 1,2); 50 nM, 4 h was 79%; the % Killing by mAb; KARPAS-422 (DR 2,4); 50 nM, 4 h came to 68%; the % Killing by mAb; KM-H2; 50 nM, 4 h amounted to 88%. In addition, the % Killing by mAb; L1236; 50 nM, 4 h came out at 66%; the % Killing by mAb; L-363; 50 nM, 4 h was determined as 24%; the % Killing by mAb; L-428 (DR 12); 50 nM, 4 h turned out to be 91%; the % Killing by mAb; LP-1; 50 nM, 4 h came to 70%. The same molecule came in with a % Killing by mAb; MHH-CALL-4 (DR 1,2); 50 nM, 4 h of 46%; a % Killing by mAb; MHH-PREB-1; 50 nM, 4 h of 8%; a % Killing by mAb; MN-60 (DR 10,13); 50 nM, 4 h of 66%; a % Killing by mAb; NALM-1 (DR 1,4); 50 nM, 4 h of 78%. The same molecule registered a % Killing by mAb; RAJI (DR 10,17); 50 nM, 4 h of 86%; a % Killing by mAb; RPMI-8226; 50 nM, 4 h of 26%; a % Killing by mAb; SR-786 (DR 1,2); 50 nM, 4 h of 44%.

B6: MS-GPC-8-17 (Fab) (Fab, V domains shown)
VH: B1 VH with E3Q
VL: B1 VL with E26S, N31S, Q35S, M94F, N95S, H97Y
Consider B6, for which the maximum capacity to kill MHH-Call 4 cells turned out to be 78%.

Source of the values: patent US20070086998A1.
